{
  "source": "paper PMC2446434",
  "origin": "cited, not measured here",
  "target": "CD200 (Mus musculus) (UniProt O54901)",
  "sequence (O54901 31-232)": "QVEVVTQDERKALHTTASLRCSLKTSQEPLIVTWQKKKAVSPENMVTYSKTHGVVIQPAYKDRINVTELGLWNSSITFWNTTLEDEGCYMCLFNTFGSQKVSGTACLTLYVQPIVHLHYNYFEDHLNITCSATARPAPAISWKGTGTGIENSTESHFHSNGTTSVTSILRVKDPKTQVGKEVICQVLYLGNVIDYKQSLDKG",
  "test": "SPR",
  "data": [
    {"substance": "CD200R (from UniProt Q9ES57)", "values": [
      {"measurement": "Kd", "result": 4, "unit": "µM"}
    ]}
  ]
}
